Substitutions are numbered along the chain they refer to. Names may count otherwise.
What was measured:
crystal structure = target: the molecule itself; experiment: crystal structure
SEC-MALS = target: the molecule itself; experiment: SEC-MALS
non-reducing SDS-PAGE = target: the molecule itself; experiment: non-reducing SDS-PAGE

B1: mouse 4-1BB ligand ectodomain (amino acids 140-309) without purification tag, co-expressed with m4-1BB for the complex structure (domain or fragment, UniProt P41274 140-309, looked up)
chain: TTQQGSPVFAKLLAKNQASLCNTTLNWHSQDGAGSSYLSQGLRYEEDKKELVVDSPGLYYVFLELKLSPTFTNTGHKVQGWVSLVLQAKPQVDDFDNLALTVELFPCSMENKLVDRSWSQLLLLKAGHRLSVGLRAYLHGAQDAYRDWELSYPNTTSFGLFLVKPDNPWE
modifications: disulfide linked dimer
- stoichiometry N (crystal structure): 2

B2: mouse 4-1BB ligand ectodomain (amino acids 140-309) C246S (domain or fragment, UniProt P41274 140-309, looked up)
chain: B1 chain with C107S
- stoichiometry N (SEC-MALS): 2

B3: mouse 4-1BB ligand ectodomain (amino acids 140-309) S256F (domain or fragment, UniProt P41274 140-309, looked up)
chain: B1 chain with S117F
modifications: inter-molecular disulfide through Cys 246
- stoichiometry N (non-reducing SDS-PAGE): 2

From article doi:10.1101/444554 (bioRxiv, 2018)
